Measurements from paper PMC9880023.

Biological target: HA-NRX1βS4(−), expressed on COS-7 cells
Test: cell-based competitive binding assay (fluorescence microscopy); COS-7 cells expressing HA-NRX1βS4(−); biotin-AβOs fixed at 100 nM monomer equivalent, SorCS1-Fc varied 0–1,500 nM; 1 h at 4°C

IC50: 92.8 nM
B1: SorCS1 ectodomain tagged with human immunoglobulin Fc region (SorCS1-Fc) (Fc fusion)
chain: SLSCCPPQHPSSTPRRTLTPRGFPHPGPLGRAPATPPPLFMRPLFAVAPGDRALFLERAGGSRVSVATAARSGRRRRSGTEPEKIEPGEGASRSRRDMLKDGGQQGLGTGARDPGKATRFRMEELRLTSTTFALTGDSAHNQAMVHWSGHNSSVILILTKLYDYNLGSITESSLWRSTDYGTTYEKLNDKVGLKTILSYLYVCPTNKCKIMLLTDPEIESSLLISSDEGATYQKYRLNFYLQSLLFHPKQEDWILAYSQDQKLYSSAEFGRRWQLIQESVVPNRFYWSVMGSSKEPDLVHLEARTVDGHSIYLTCRMQNCTEANRNKPFPGYIDPDSLIVQDDYVFVQLTSGGRPHYYVSYRRSPFAQMKLPKYALPKDMHVISTDENQVFAAVQEWNQNDTYNLYISDTRGVYFTLALENVRSSRGPEGNVMIDLYEVAGIKGMFLANKKIDNQVKTFITYNKGRDWRLLQAPDADLRGDPVHCLLPYCSLHLHLKVSENPYTSGIIASRDTAPSIIVASGNIGSELSDSDISMFVSSDAGNTWRQIFEEEHSILYLDQGGVLVAMKHTSLPIRHLWLSFDEGRSWSKYSFTSIPLFVDGVLGEPGEETLIMTVFGHFSHRSEWQLVKVDYKSIFDRRCAEEDYRPWQLHSQGEACIMGAKRIYKKRKSERKCMQKYAGAMESEPCVCTEADFDCDYGYERHSNGQCLPAFWFNPSSLSKDCSLGQSYLNSAGYRKVVSNNCTDGVREQYTAKPQKCPGKAPRGLRIVTADGKLTAEQGHNVTLMVQLEEGDVQRTLIQVDFGDGIAVSYVNLSSMEDGIKHVYQNVGIFRVTVQVDNSLGSDSAVLYLHVTCPLEHVHLSLPFVTTKNKEVNATAVLWPSQVGTLTYVWWYGNNTEPLITLEGSISFKFTSEGMNTITVQVSAGNAILQDTKTIAVYEEFRSLRLAFSPNLDDYNPDIPEWRRDISRVIKKSLVEATGIPSQHILVAVLPGLPTAAELFVLPYQDGTRENKRSPEDLEQISEVLIHKLNQNLVHFELKPGVQVLVHAAHLTAAPLVDLTPTHS
